Assay results taken from patent publication US20260242478A1 (published 2026).
Where no end group is shown, it is not given here.

B1: Peptide-134 (peptide)
peptide: YCEGHLPEYIQKCL
modifications: not fully specified; cysteine pairing not given here; also: biotinylated, site not given here

The binders below were run against T1, PSMA Fab (assay: competition ELISA; peptide 0-100 µM with 0.3 nM PSMA Fab on plate-captured biotinylated PSMA).
T1 construct: also called 006 PSMA Fab; anti-PSMA Fab
Procedure: The concentration of peptide required to reduce the maximum signal by 50% (IC₅₀) was calculated in Graphpad Prism software.
For AMKWCTPRWMCAAE [Peptide-241], the IC50 was 9.16 µM.
LAKWCTPRWMCAAE [Peptide-242] was tested, and the IC50 was 13.7 µM.
LMAWCTPRWMCAAE [Peptide-243] was tested, and the IC50 was 40.8 µM.
For LMKACTPRWMCAAE [Peptide-244], the IC50 was 34.5 µM.
In the case of LMKWCAPRWMCAAE [Peptide-245], the IC50 is reported as 49.7 µM.
Work on LMKWCTPAWMCAAE [Peptide-247] yielded an IC50 of 19.7 µM.
In the case of LMKWCTPRWMCAAA [Peptide-250], the IC50 is reported as 6.64 µM.

Each binder was assayed against anti-CD28 Fab (assay: competition ELISA, peptide titrated 0-100 uM against 1 nM anti-CD28 Fab, plate-bound CD28 as competitor).
Target sequence in this assay (VH, as listed by the source, chain 1 of 2): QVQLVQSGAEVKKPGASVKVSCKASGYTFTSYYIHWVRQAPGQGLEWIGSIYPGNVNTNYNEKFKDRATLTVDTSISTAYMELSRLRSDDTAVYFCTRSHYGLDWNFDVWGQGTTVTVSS
Target sequence in this assay (VL, as listed by the source, chain 2 of 2): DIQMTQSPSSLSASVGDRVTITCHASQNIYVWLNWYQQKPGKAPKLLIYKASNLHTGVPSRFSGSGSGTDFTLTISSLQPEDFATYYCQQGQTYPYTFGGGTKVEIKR
SCAAGASYAWPYCL [Peptide-92] gave an IC50 of 7.89 µM.

What follows are binders tested against T1, PSMA Fab (assay: BLI (Octet); PSMA Fab on sensor-loaded biotinylated peptide, 1:1 model).
For HVKLCKPAWMCQGL [Peptide-219], the “Off rate t1/2” value was 2.9 min.
With IPKSCIPSWMCTGF [Peptide-225] the “Off rate t1/2” value was 2.1 min.
LDNWCKPSWMCTGF [Peptide-227] was tested, and the “Off rate t1/2” value was 2.1 min.
With VTKWCIPPWMCEVT [Peptide-230] the “Off rate t1/2” value was 6.4 min.
In the case of LDKWCVPKWMCSGL [Peptide-232], the “Off rate t1/2” value is reported as 2.1 min.
With GEKWCIPDWMCSGF [Peptide-233] the “Off rate t1/2” value was 3.9 min.
VEKLCTPIWMCLGF [Peptide-235] was tested, and the “Off rate t1/2” value was 2.3 min.
DVKLCKPEWMCYGL [Peptide-236] was tested, and the “Off rate t1/2” value was 1.8 min.
With IDIRCTPIWMCVGF [Peptide-239] the “Off rate t1/2” value was 2 min.

Biological target: T1, PSMA Fab
Assay: competition ELISA; peptide 0-100 µM with 0.3 nM PSMA Fab on plate-captured biotinylated PSMA
Remark: another data set of the same source
IPKSCIPSWMCTGF [Peptide-225] showed an IC50 of 0.34 µM.
In the case of LDNWCKPSWMCTGF [Peptide-227], the IC50 is reported as 0.76 µM.
Work on LDKWCVPKWMCSGL [Peptide-232] yielded an IC50 of 0.96 µM.
In the case of GEKWCIPDWMCSGF [Peptide-233], the IC50 is reported as 0.36 µM.
For VEKLCTPIWMCLGF [Peptide-235], the IC50 was 0.32 µM.
DVKLCKPEWMCYGL [Peptide-236] showed an IC50 of 0.38 µM.
With IDIRCTPIWMCVGF [Peptide-239] the IC50 was 0.62 µM.

What follows are binders tested against anti-CD28 Fab (assay: BLI (Octet): biotinylated peptide on streptavidin sensor, anti-CD28 Fab titrated in solution, 1:1 model).
Target sequence in this assay (VH, as listed by the source, chain 1 of 2): as the sequence (VH, as listed by the source, chain 1 of 2) above
Target sequence in this assay (VL, as listed by the source, chain 2 of 2): as the sequence (VL, as listed by the source, chain 2 of 2) above
With YCEGHLPEYRNKCL (cysteine pairing not given here; also: biotinylated, site not given here) [Peptide-132] the Kd was 0.11 µM and the “t1/2” value was 0.8 min.
In the case of B1, the “t1/2” value is reported as 1 min.

Biological target: anti-CD28 Fab
Assay: competition ELISA, peptide titrated 0-100 uM against 1 nM anti-CD28 Fab, plate-bound CD28 as competitor
Remark: another data set of the same source
Target sequence in this assay (VH, as listed by the source, chain 1 of 2): as the sequence (VH, as listed by the source, chain 1 of 2) above
Target sequence in this assay (VL, as listed by the source, chain 2 of 2): as the sequence (VL, as listed by the source, chain 2 of 2) above
Binder SCAAGASYAWPYCL [Peptide-92] has an IC50 of 2.39 µM.
YCAGHMPQYEVKCL [Peptide-95] gave an IC50 of 43.6 µM.
YCAGHTEEHYVKCM [Peptide-96] was tested, and the IC50 was 7.59 µM.
In the case of YCMGHSHEHIWKCL [Peptide-97], the IC50 is reported as 69.1 µM.
In the case of YCAGHSHEYLAKCE [Peptide-98], the IC50 is reported as 7.04 µM.

Biological target: anti-CD28 Fab
Assay: as above
Remark: another data set of the same source
Target sequence in this assay (VH, as listed by the source, chain 1 of 2): as the sequence (VH, as listed by the source, chain 1 of 2) above
Target sequence in this assay (VL, as listed by the source, chain 2 of 2): as the sequence (VL, as listed by the source, chain 2 of 2) above
SCAAGASYAWPYCL [Peptide-92] showed an IC50 of 11.8 µM.

Each binder was assayed against T2, anti-CD28 scFv (disulfide) (assay: competition ELISA: peptide titrated (0-100 µM) with 0.3 nM anti-CD28 scFv (disulfide), binding to plate-bound CD28).
T2 construct: also called Anti-CD28 scFv (VH - linker 1 - VL) Disulfide mutation: G44C, G235C
T2 sequence (scFv, as listed by the source): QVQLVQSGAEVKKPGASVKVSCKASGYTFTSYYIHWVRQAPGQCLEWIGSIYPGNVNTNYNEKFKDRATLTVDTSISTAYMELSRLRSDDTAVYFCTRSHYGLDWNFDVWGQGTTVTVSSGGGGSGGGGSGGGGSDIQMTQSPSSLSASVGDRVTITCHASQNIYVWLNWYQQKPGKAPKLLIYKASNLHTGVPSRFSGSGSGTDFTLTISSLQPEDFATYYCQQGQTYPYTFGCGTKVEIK
Binder YCEGHLPEYRNKCL (cysteine pairing not given here; also: biotinylated, site not given here) [Peptide-132] has an IC50 of 0.78 µM.
B1 was tested, and the IC50 was 0.48 µM.

The binders below were run against T1, PSMA Fab (assay: binding ELISA; PSMA Fab titrated on plate-captured biotinylated peptide).
Binder HVKLCKPAWMCQGL [Peptide-219] has an EC50 of 0.0061 µM.
For IPKSCIPSWMCTGF [Peptide-225], the EC50 was 0.0097 µM.
Binder LDNWCKPSWMCTGF [Peptide-227] has an EC50 of 0.0077 µM.
Binder LDKWCVPKWMCSGL [Peptide-232] has an EC50 of 0.0072 µM.
For GEKWCIPDWMCSGF [Peptide-233], the EC50 was 0.0069 µM.
VEKLCTPIWMCLGF [Peptide-235] was tested, and the EC50 was 0.0105 µM.
Binder DVKLCKPEWMCYGL [Peptide-236] has an EC50 of 0.0198 µM.
IDIRCTPIWMCVGF [Peptide-239] was tested, and the EC50 was 0.0094 µM.
